Reference: the supplement of paper PMC9170038

Tested on: K4 kissing-loop RNA reporter
Assay: apparent KD of K4 kissing-loop reporter; higher = weaker reporter binding
Conditions: Eterna round: R107; input ligand: theophylline 20 uM
Procedure: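 RNA-MaP round R107: designed RNA switches with theophylline, tryptophan, arginine or FMN aptamers are transcribed on-chip within common flanks. They are titrated with a labelled K4 kissing-loop RNA reporter in RNA-MaP buffer (100 mM Tris pH 7.5, 80 mM KCl, 4 mM MgCl2), without ligand or with the indicated ligand. Median apparent KD per design.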
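Further: bound reporter read as fluorescence of individual clusters on recovered sequencing chips by microscopy, with normalized cluster intensities fitted with a binding model.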

Sequence	apparent KD of K4 kissing-loop reporter [nM]
UUUAUAGUGACGGCCGCCACUAUAUUAAUGUUUAGGUUAGAGUGAUGUUUUGAUUAAUAUUUUUAUAGGACCGGGUUAUAUGUUU [ggbvmullin]	515
UGGGAUGUUAAAGGAUAUAGAAAGUGAUAUUAGAAAGUGAGUGAUGUUGAUGUAGGUGAUGAUAUGUUAGAAGGUUAACAAAACG [abcde]	303
AUUGUAUACUGAAGGAGCGAGUAGUGGAAACAUAAACUCAUUGCGAGUGAUGUUCGCAGUACUCAGGUAGGUCGCAGUAAUGGUA [Exclusion Arginine B Gf 9]	242
AAUAUAUAGUGAAGGAGCGCGUAUAGCAGUGAUGUUGCUUACUUAUUAUUAUAUUUUUUGACGCAGGUAGGUCGCACUAUAUAUA [JR_ExcArginiB_Sub021]	227
GAUCGAUGUCAGGAUACCAGCGGAAUCGUCGGAGACUCGAGUGGAGUGAUGUUCCCAGCACGCCCUUGGCAGCCUUGUUUAAGAU [theeternabot_sameState_KL_Theo_B_19]	404
GCUAGUGCCCGCUCGAAAGAGCGUGUGUGUAAGGAUAUCUAGUAAUAGAGAAGGUACGGAGUGAUGUUCCCACACGGGCACUAGC	779
UAGGUGCCGAACCAGUGAUGUUGGAGUCAUCGAGGACCGGUACGGCCGCCACUCGGCAGCGCCGGCGCGAUUAAUUGCGGAGACA [theeternabot_sameState_KL_Trp_A_7]	470
UGUACCGAGUCAGGAUAUGGCGUCGAAAGACGAAUCUUAGUGAUGUUAAGGAUCUGCGAAAGCAGUCCAGAAGGGACUUGGUACU [FmnBS 26 U37+A49]	444
GAUCUGAACGAAAGUUCGGAUCAGUCCGAUACCAGUAUGGAUUCAUACCCUUGGCAGCGGUUAUCUGCUAUGGAGUGAUGUUCCU [Theophylline A K4 12]	447
CGACCGGUAGCGGAUACCAGCCUUUGAGUGAUGUUCGAGUUGAGUUUCCGCGCGUCGAAAGGCCCUUGGCAGCCGAUACGCCUUC [theeternabot_exclusion_KL_Theo_B_14]	187
UGUUAUGUAUCAGGAUAUUAGUGAUGUUUGUUUAUGUUAGUGAUGUUGAUAUUUGUUUUAUGUAUUUAAGAAGGGAUUGUGAUGU [xexxmullin]	35.9

Same assay, conditions: Eterna round: R107; input ligand: tryptophan 2.4 mM

Sequence	apparent KD of K4 kissing-loop reporter [nM]
UGUGUUUACCUGACUCAGUGAUGUUGAGAAGGAGCGUGCGAAAGCACAGGUAGGUCGCUCAACCUAAAUUCAGGUGAGCACUAAA [#SwitchBubble 10 #K4Early]	277
AUCACAGUGAUGUUGUGAUAUACUUCAGAUACCAGACUAGUGCUAGUCCCUUGGCAGCUGAACUCAGCAGCACCACUAGCACUCG [Theo A Ex t6a]	134
GUAGCACUUGAUAGUGAUGUUAGCAAGGGCAAGGAUAUCAUCUCAAUGAGAAGGUGUCCUUGCUAACAGCUACGGGAAUAUCCCA [Omei KL FMN A Exc D v5]	630
GGCAGAGCGCGAAGGAGCGCCCUGACAGGUUGCUGCCGUGGGCAGUGAUGUUGCUCAGUCCGGCAGGUAGGUCGCGUGCUCUGCC	148
CGAACACCCUCGGCCGCCACUAGCCGUAGCCUGCGCUUGCGGAGUGAUGUUCUGAAGCAGGAUGUUAGGACCGGGAGCUACAUCC [theeternabot_sameState_KL_Trp_B_33]	371
AUCUUGCAUUCGGCCGCCACUAUCGUGCAGUGAUGUUGCGCGAGUGACGCGUCCCGCAGUGCAGGUAGGACCGGGAAUGAUACCC [Erlazaar]	125
UACAUAUAAUUAUUUCUACAUUUAUUUAGUCAGGAUAUCGAUUAAACGAGAAGGGACAAUAUCAAGUGAUGUUUGAUAAUUCAAA [JR_ExcFMNA_Sub010]	58.6
UCGAAGGAUGGAAGGAGCGCUCGUCAGUCCUGCGAGUGAUGUUCGUGGGUAAAUAGUCGCGAGCAGGUAGGUCGCCAUCUUGAGA [Lageso]	118
AGUACGCCCAGUGAUACCAGCCCGCCUGGGCAGUGAUGUUGCUCGGGAAAUAAAAUAGAGGGCCCUUGGCAGCACACGGUAGUCC [Cees]	174
AGGUUUUGAUUAGGAUAUGCACUGAGGACGAGAAUAUAGUGAUGUUAUAUAAUAGGAAUUAGUAGAGUAGAAGGGAUUGAGGUUU [SSFMNB.V]	161
AAGAGUAAACUCUAACUCCUUAAGUCCGAAGGAGCGACUCAAUGGUCAGGUAGGUCGCGGACAAUCCUAGUGAUGUUAGGAUCUG [Arg A SS t5]	211
AGUCGCAGUGAUGUUGCGAUUCCGUUGAGGGAGGAUAUUGGUAAUACAAGAAGGCCCGGCUGCGGGUGAUGUUCGCAAUAGGGCC [Exclusion FMN A GF19]	105
UACGUUUUAUUAACACUAAAUACAACUGAAGGAGCGACAAUAAAGUCAGGUAGGUCGCAGAAUUAAUGAGUGAUGUUCAUUUUUA [JR_ExcArginiA_Sub015]	48.1
GCCGUAGAUUGAAGGAGCGGACAGAUACGGGUAUCCAGUGAUGUUGGAAGGUAGCUACUAGUCCAGGUAGGUCGCAAUCUACGGC	164
GGAUAGGACAGAGGAUAUCCAGUGAUGUUGGAGAAUUCUCCUUAAACAUGUCACAAAAGUGGCAUGGGAGAAGGCUGUCCUAUCG [Mod of Eli's FmnBX 29 v1]	105
UCUUUUGUAUAUGAUACCAGCAGUGAGAGACAGGAAGUAUAGUGAUGUUAUAUGAGAGAAUGCCCUUGGCAGCGUGUGCGGUGGG [SSTheophylB.U]	108
CCUUCUCUUGAUAGUGAUGUUAUCAAGGGCAAGGAUAUCAUUUUAAUGAGAAGGUGUCCUUGAUAACAUGGAGGUCUGAAACAGA [Omei KL FMN A Exc C v6]	95.5
ACACUAUCGUCAUAGACGGUAGUGACAUCUCAGGAUAUAAGUGAUGUUAGAAGGGAGAAAAUCUUAGGUAUCGAAUAGAUACCAA [FmnA 8 #K4BetweenAptamer #OpenEnded]	1380
CCCUCACGAGUGAUGUUCGUAGGGUACAGUCAGGAUAUCAUGCGGUUGAGAAGGGACAGAGAGGGCGGCCACGGGUUGCUCAUCU [Tiongequ]	390
GAAAGAAAGUAUGAUACCAGACACCCGAGUGAUGUUCGGAACAGUGUGUUGUUCUUUUAAGUCCCUUGGCAGCAUAAAAGAAAAG [whbob_SS_Theo_B_sa86]	110
UGUACCGAGUCAGGAUAUGGUAUAGCGGAAACGCACCAGUGAUGUUGGACGCGAAAGCGAUAAAAUCCAGAAGGGACUUGGUACU [FmnBS 20 #SwitchBubble #StaticStem #DoubleMagnetSystem]	207
GGAUAGGACAGAGGAUAUGGUAGUGAUGUUACCAAACUGGUUACUCUUGUCAGAAAACUGGCAUCUCUAGAAGGCUGUCCUAUCG [KL-XFMN-B9]	168

Sequence	apparent KD of K4 kissing-loop reporter [nM]
ACUGGAAACAUCACGUAUCCAAAACUGGAUACCAGCUCGGAAACGAGCCCUUGGCAGCCAGAACUUGCAGUGAUGUUGCAAGUAA [Design9]	398
UGUACCGAGGCAGGAUAUGUCGUCGAAAGACGAAAUGGAGUGAUGUUCCUUAAACUGCGAAAGCAGACAGAAGGGCCUUGGUACU [FmnBS 29 G10+C76]	160
CACCCUGGACAAGGAUAUAUCAUGCGCCAAGGGCAGUGAUGUUGCCACAGGCUUGGGUCCAGUUCGAUAGAAGGUGUCUGGUAUU [theeternabot_sameState_KL_FMN_B_4]	183
GGCACGGGCUCGGCCGCCACUCCCGCGGGUCGUAAGGUCCGCUACUGAGUGAUGUUCGGUUGGAGGAGGACCGGGAGCCCGUGCC [#2 Exclusion - Tryptophan B Attempt #20 (HarryS)]	119
GCCAGAGCGCGAAGGAGCGCCGUGACAGGUUGCUGCCGUGGGCAGUGAUGUUGCUCAGUCUGGCAGGUAGGUCGCGUGCUCUGGC	219
GGGAUGUAGUGAUGUUAUAUUGGAUGUAGACGAGGACCGGUACGGCCGCCACUCGUGAUGGCUGCUAGCACGUUUCGAUGUUUGC [ExTryptoA.Cs]	330
UUAGAGAUCUCAGGAUAUCAGUGAUGUUGUGAUCCAGAUCUGAGAUAGAAUUCUAUCUCAGAUCAAUGAGAAGGGAGAUCUCAUU [AK4.3 Exc FMN B]	1090
UAAUUUAUAACUUUUAUAUAAUAAUCAGAUACCAGUGAUUAAUGUCACCCUUGGCAGCUGUAUAGAGUGAUGUUCUAAUGCUUAA [JR_SSTheophyA_Sub023]	149
GCACGAGUGAUGUUCGUUGGCAUGCAUUCCGAGGAUAUGGGAUUAGCCAGAAGGCGGAAUCGGUCUUCGAGUGAUGUUCGAAGAU [Same State FMN A GF 13]	109
ACCAUCAAAGAUGGCCAGGACUCCGCUGAUACCAGAGUGAAAACACUCCCUUGGCAGCAGGUGAGUGAUGUUCACAAGUCCUGGA [Omel KL Theo A SS B v5]	857
UUUAUAGUGACGGCCGCCACUAUAUUAAUGUUUAGGUUAGAGUGAUGUUUUGAUUAAUAUUUUUAUAGGACCGGGUUAUAUGUUU [ggbvmullin]	591
UGGGAUGUUAAAGGAUAUAGAAAGUGAUAUUAGAAAGUGAGUGAUGUUGAUGUAGGUGAUGAUAUGUUAGAAGGUUAACAAAACG [abcde]	292
AUUGUAUACUGAAGGAGCGAGUAGUGGAAACAUAAACUCAUUGCGAGUGAUGUUCGCAGUACUCAGGUAGGUCGCAGUAAUGGUA [Exclusion Arginine B Gf 9]	451
AAUAUAUAGUGAAGGAGCGCGUAUAGCAGUGAUGUUGCUUACUUAUUAUUAUAUUUUUUGACGCAGGUAGGUCGCACUAUAUAUA [JR_ExcArginiB_Sub021]	215
GAUCGAUGUCAGGAUACCAGCGGAAUCGUCGGAGACUCGAGUGGAGUGAUGUUCCCAGCACGCCCUUGGCAGCCUUGUUUAAGAU [theeternabot_sameState_KL_Theo_B_19]	310
GCUAGUGCCCGCUCGAAAGAGCGUGUGUGUAAGGAUAUCUAGUAAUAGAGAAGGUACGGAGUGAUGUUCCCACACGGGCACUAGC	1060
UAGGUGCCGAACCAGUGAUGUUGGAGUCAUCGAGGACCGGUACGGCCGCCACUCGGCAGCGCCGGCGCGAUUAAUUGCGGAGACA [theeternabot_sameState_KL_Trp_A_7]	698
UGUACCGAGUCAGGAUAUGGCGUCGAAAGACGAAUCUUAGUGAUGUUAAGGAUCUGCGAAAGCAGUCCAGAAGGGACUUGGUACU [FmnBS 26 U37+A49]	475
GAUCUGAACGAAAGUUCGGAUCAGUCCGAUACCAGUAUGGAUUCAUACCCUUGGCAGCGGUUAUCUGCUAUGGAGUGAUGUUCCU [Theophylline A K4 12]	227
CGACCGGUAGCGGAUACCAGCCUUUGAGUGAUGUUCGAGUUGAGUUUCCGCGCGUCGAAAGGCCCUUGGCAGCCGAUACGCCUUC [theeternabot_exclusion_KL_Theo_B_14]	188
UGUUAUGUAUCAGGAUAUUAGUGAUGUUUGUUUAUGUUAGUGAUGUUGAUAUUUGUUUUAUGUAUUUAAGAAGGGAUUGUGAUGU [xexxmullin]	57.8
